Data as given in the supplement of paper PMC7877785.
± gives the uncertainty stated by the source.

Test: self-splicing fitness, log relative to wild type (ln ratio); higher = more splicing; Tetrahymena group I intron in knt gene, E. coli kanamycin selection, DiMSum; sequences stand for … in CUCUCU…GGAGGGAAAAGUUAUCAGGCAUGCACCUGGUAGCUAGUCUUUAAACCAAUAGAUUGCAUCGGUUUAAAAGGCAAGACCGUCAAAUUGCGGGAAAGGGGUCAACAGCCGUUCAGUACCAAGUCUCAGGGGAAACUUUGAGAUGGCCUUGCAAAGGGUAUGGUAAUAAGCUGACGGACAUGGUCCUAACCACGCAGCCAAGUCCUAAGUCAACAGAUCUUCUGUUGAUAUGGAUGCAGUUCACAGACUAAAUGUCGGUCGGGGAAGAUGUAUUCUUCUCAUAAGAUAUAGUCGGACCUCUCCUUAAUGGGAGCUAGCGGAUGAAGUGAUGCAACACUGGAGCCGCUGGGAACUAAUUUGUAUGCGAAAGUAUAUUGAUUAGUUUUGGAGUACUCGUGGUCG
How it was run: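 The eight P1ex-region nucleotides of an intron in the knt kanamycin-resistance gene on pET-22b(+) were all randomised and the library put into E. coli BL21(DE3). Six replicate transformations were grown overnight at 37°C or 30°C on LB agar with or without 25 μg/mL kanamycin, together with 100 μg/mL carbenicillin, 50 μM IPTG and 0.2% rhamnose. Colonies were pooled and amplicon-sequenced on an Illumina HiSeq 2500. Fitness from DiMSum is the error-weighted combination of wild-type-normalised replicate fold changes, kanamycin over none.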

Sequence	self-splicing fitness (ln) (30 °C)	self-splicing fitness (ln) (37 °C)
AAUUAGCAAUAUUACGCACA	0.0525 ± 0.13	-0.475 ± 0.15
AAUUAGCAAUAUUACGCCAA	-2.13 ± 0.18	-1.25 ± 0.2
AAUUAGCAAUAUUACGCCCG	-1.04 ± 0.18	0.376 ± 0.28
AAUUAGCAAUAUUACGCCCU	0.0273 ± 0.1	-0.313 ± 0.13
AAUUAGCAAUAUUACGCUCC	-1.09 ± 0.36	-0.0599 ± 0.35
AAUUAGCAAUAUUACGGCUC	-0.532 ± 0.14	0.0268 ± 0.16
AAUUAGCAAUAUUACGGUCG	-0.573 ± 0.099	-0.259 ± 0.12
AAUUAGCAAUAUUACGGUGA	-1.7 ± 0.084	-0.534 ± 0.099
AAUUAGCAAUAUUACGGUUA	-0.622 ± 0.11	-0.183 ± 0.099
AAUUAGCAAUAUUACGGUUC	-3.38 ± 0.22	-2.65 ± 0.26
AAUUAGCAAUAUUACGUAAA	-1.3 ± 0.11	-0.736 ± 0.18
AAUUAGCAAUAUUACGUAUU	-2.32 ± 0.18	-0.913 ± 0.14
AAUUAGCAAUAUUACGUGUA	-2.21 ± 0.15	-1.41 ± 0.12
AAUUAGCAAUAUUACGUUAC	-3.18 ± 0.15	-1.74 ± 0.17
ACAAAGCAAUAUUACGACCU	0.0994 ± 0.076	0.311 ± 0.091
ACAAAGCAAUAUUACGAGGA	-3.04 ± 0.2	-2.07 ± 0.19
ACAAAGCAAUAUUACGAGUU	-3.3 ± 0.099	-1.68 ± 0.096
ACAAAGCAAUAUUACGCAAG	-1.45 ± 0.079	0.00248 ± 0.087
ACAAAGCAAUAUUACGCACC	-0.449 ± 0.19	0.128 ± 0.2
ACAAAGCAAUAUUACGCACU	-0.0924 ± 0.069	0.264 ± 0.089

Sequence	self-splicing fitness (ln) (30 °C)	self-splicing fitness (ln) (37 °C)
ACAAAGCAAUAUUACGCAUU	-3.06 ± 0.095	-1.56 ± 0.082
ACAAAGCAAUAUUACGCCCC	-0.67 ± 0.27	-0.241 ± 0.26
ACAAAGCAAUAUUACGCGGU	-3.37 ± 0.13	-2.68 ± 0.14
ACAAAGCAAUAUUACGCUGU	-2.48 ± 0.14	-3.01 ± 0.27
ACAAAGCAAUAUUACGGAGA	-3.37 ± 0.19	-2.39 ± 0.19
ACAAAGCAAUAUUACGGGAG	-1.72 ± 0.1	-1.08 ± 0.12
ACAAAGCAAUAUUACGGUGA	-1.28 ± 0.069	-0.535 ± 0.07
ACAAAGCAAUAUUACGUGAC	-3.4 ± 0.11	-1.37 ± 0.092
ACAAAGCAAUAUUACGUGCA	-0.78 ± 0.057	-0.154 ± 0.074
ACAAAGCAAUAUUACGUGCC	-1.14 ± 0.077	-1.16 ± 0.097
ACAAAGCAAUAUUACGUGCU	-0.981 ± 0.069	-0.486 ± 0.082
ACAAAGCAAUAUUACGUGGU	-2.87 ± 0.084	-2.99 ± 0.12
ACAAAGCAAUAUUACGUUCG	-1.28 ± 0.049	-0.0172 ± 0.067
ACAAAGCAAUAUUACGUUGU	-3.68 ± 0.14	-2.18 ± 0.15
ACACAGCAAUAUUACGAAGU	-3.43 ± 0.14	-2.21 ± 0.15
ACACAGCAAUAUUACGACGA	-0.721 ± 0.074	-0.406 ± 0.081
ACACAGCAAUAUUACGACGU	-0.452 ± 0.048	0.722 ± 0.073
ACACAGCAAUAUUACGAGAG	-3.65 ± 0.14	-2.37 ± 0.12
ACACAGCAAUAUUACGAGCC	-1.97 ± 0.17	-0.179 ± 0.19
ACACAGCAAUAUUACGAGUA	-2.69 ± 0.12	-0.889 ± 0.081

Sequence	self-splicing fitness (ln) (30 °C)	self-splicing fitness (ln) (37 °C)
ACACAGCAAUAUUACGAUUC	-1.96 ± 0.049	-1.32 ± 0.072
ACACAGCAAUAUUACGCAAC	-5.33 ± 0.36	-1.88 ± 0.17
ACACAGCAAUAUUACGCCUG	-0.898 ± 0.07	-0.245 ± 0.076
ACACAGCAAUAUUACGCUGA	-2.42 ± 0.096	-1.47 ± 0.083
ACACAGCAAUAUUACGCUUC		-3.08 ± 0.23
ACACAGCAAUAUUACGCUUG	-1.24 ± 0.063	-0.733 ± 0.076
ACACAGCAAUAUUACGGAGU	-2.39 ± 0.087	-2.01 ± 0.11
ACACAGCAAUAUUACGGAUC	-2.94 ± 0.12	-2.1 ± 0.15
ACACAGCAAUAUUACGGCUC	-0.896 ± 0.067	-0.461 ± 0.088
ACACAGCAAUAUUACGGGAA	-2.99 ± 0.22	-1.79 ± 0.14
ACACAGCAAUAUUACGGGAU	-1.91 ± 0.053	-0.774 ± 0.06
ACACAGCAAUAUUACGGUAG	-4 ± 0.17	-3.1 ± 0.15
ACACAGCAAUAUUACGGUCG	-1.09 ± 0.051	-0.473 ± 0.076
ACACAGCAAUAUUACGUACC	-1.43 ± 0.11	-1.12 ± 0.15
ACACAGCAAUAUUACGUAUA	-3.41 ± 0.13	-2.5 ± 0.12
ACACAGCAAUAUUACGUCAA	-2.25 ± 0.19	-1.99 ± 0.14
ACACAGCAAUAUUACGUCGA	-1.22 ± 0.089	-0.852 ± 0.092
ACACAGCAAUAUUACGUGCU	-1.34 ± 0.055	-0.611 ± 0.065
ACACAGCAAUAUUACGUGGU	-4.33 ± 0.16	-2.82 ± 0.11
ACAGAGCAAUAUUACGAACU	-3.35 ± 0.21	-1.61 ± 0.21
